Reference: article PMC10397247
Like-named read-outs stand apart in the source and are kept apart here.

How the values were obtained:
[1] = target: T1, 4H2518-bH; experiment: two-hybrid library CCNG1;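 further: natural log of median RNA to DNA barcode read ratio; higher means stronger binding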
T1 chain: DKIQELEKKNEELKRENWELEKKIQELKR

[2] = target: T2, 4H2585-bH; experiment: two-hybrid library CCNG1;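 further: natural log of median RNA to DNA barcode read ratio; higher means stronger binding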
T2 chain: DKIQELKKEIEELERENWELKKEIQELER

[3] = target: T3, 4H264-bH; experiment: two-hybrid library CCNG1;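 further: natural log of median RNA to DNA barcode read ratio; higher means stronger binding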
T3 chain: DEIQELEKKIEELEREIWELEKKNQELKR

[4] = target: T4, 4H2760-bH; experiment: two-hybrid library CCNG1;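 further: natural log of median RNA to DNA barcode read ratio; higher means stronger binding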
T4 chain: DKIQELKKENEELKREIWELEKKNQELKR

[5] = target: T5, 4H2859-bH; experiment: two-hybrid library CCNG1
T5 chain: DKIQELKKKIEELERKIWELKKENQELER

[6] = target: T6, 4H2931-bH; experiment: two-hybrid library CCNG1
T6 chain: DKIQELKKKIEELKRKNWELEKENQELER

[7] = target: T7, 4H3041-bH; experiment: two-hybrid library CCNG1
T7 chain: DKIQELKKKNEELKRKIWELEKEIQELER

[8] = target: T8, 4H3297-bH; experiment: two-hybrid library CCNG1
T8 chain: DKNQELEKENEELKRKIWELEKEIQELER

[9] = target: T9, 4H3364-bH; experiment: two-hybrid library CCNG1
T9 chain: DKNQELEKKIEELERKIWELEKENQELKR

[10] = target: T10, 4H3381-bH; experiment: two-hybrid library CCNG1
T10 chain: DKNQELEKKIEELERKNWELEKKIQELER

[11] = target: T11, 4H349-bH; experiment: two-hybrid library CCNG1
T11 chain: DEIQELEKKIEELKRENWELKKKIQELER

[12] = target: T12, 4H3974-bA; experiment: two-hybrid library CCNG1
T12 chain: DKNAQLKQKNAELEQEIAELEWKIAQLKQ

[13] = target: T13, 4H56-bH; experiment: two-hybrid library CCNG1
T13 chain: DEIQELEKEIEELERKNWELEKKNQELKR

[14] = target: T14, 4H584-bH; experiment: two-hybrid library CCNG1
T14 chain: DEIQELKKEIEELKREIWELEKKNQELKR

[15] = target: T15, 4H717-bA; experiment: two-hybrid library CCNG1
T15 chain: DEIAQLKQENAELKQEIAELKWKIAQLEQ

[16] = target: T16, 4H730-bH; experiment: two-hybrid library CCNG1
T16 chain: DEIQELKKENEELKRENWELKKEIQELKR

[17] = target: T17, 4H796-bH; experiment: two-hybrid library CCNG1
T17 chain: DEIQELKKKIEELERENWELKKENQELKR

[18] = target: T18, 4H932-bH; experiment: two-hybrid library CCNG1
T18 chain: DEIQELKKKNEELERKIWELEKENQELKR

[19] = target: T19, 4H949-bH; experiment: two-hybrid library CCNG1
T19 chain: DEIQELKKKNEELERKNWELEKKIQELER

[20] = target: T20, P5A-bP; experiment: two-hybrid library CCNG1
T20 chain: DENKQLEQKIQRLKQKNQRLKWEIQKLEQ

[21] = target: T21, P6A-bP; experiment: two-hybrid library CCNG1
T21 chain: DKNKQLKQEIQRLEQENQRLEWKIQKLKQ

[22] = target: T22, P7A-bP; experiment: two-hybrid library CCNG1
T22 chain: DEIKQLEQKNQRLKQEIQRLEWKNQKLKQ

[23] = target: T23, P8A-bP; experiment: two-hybrid library CCNG1
T23 chain: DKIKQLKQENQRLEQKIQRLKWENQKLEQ

[24] = target: T24, P9A-bP; experiment: two-hybrid library CCNG1
T24 chain: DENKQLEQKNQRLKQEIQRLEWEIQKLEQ

[25] = target: T25, O2-AA; experiment: two-hybrid library CCmax
T25 chain: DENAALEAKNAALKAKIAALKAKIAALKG

[26] = target: T26, O3-AA; experiment: two-hybrid library CCmax; conditions: mean of both orientations
T26 chain: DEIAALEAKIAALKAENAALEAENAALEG

[27] = target: T27, O4-AA; experiment: two-hybrid library CCmax; conditions: mean of both orientations
T27 chain: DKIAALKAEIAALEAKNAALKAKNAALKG

[28] = target: T28, O5-AA; experiment: two-hybrid library CCmax; conditions: mean of both orientations
T28 chain: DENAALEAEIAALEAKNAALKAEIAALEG

[29] = target: T29, O6-AA; experiment: two-hybrid library CCmax; conditions: mean of both orientations
T29 chain: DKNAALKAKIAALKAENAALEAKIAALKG

[30] = target: T30, O7-AA; experiment: two-hybrid library CCmax; conditions: mean of both orientations
T30 chain: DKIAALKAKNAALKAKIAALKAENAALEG

[31] = target: T31, O8-AA; experiment: two-hybrid library CCmax; conditions: mean of both orientations
T31 chain: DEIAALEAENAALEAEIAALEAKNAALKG

[32] = target: T32, P10-AA; experiment: two-hybrid library CCmax; conditions: mean of both orientations
T32 chain: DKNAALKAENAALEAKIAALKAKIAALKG

[33] = target: T33, P9-AA; experiment: two-hybrid library CCmax; conditions: mean of both orientations
T33 chain: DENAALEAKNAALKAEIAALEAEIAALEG

[34] = target: T34, O14-AA; experiment: two-hybrid library CCmax
T34 chain: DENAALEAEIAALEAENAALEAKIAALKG

[35] = target: T35, 4H918-bN; experiment: two-hybrid library CCNG1
T35 chain: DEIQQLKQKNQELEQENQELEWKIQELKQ

[36] = target: T36, 4H953-bN; experiment: two-hybrid library CCNG1
T36 chain: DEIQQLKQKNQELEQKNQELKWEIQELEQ

[37] = target: T37, 4H967-bN; experiment: two-hybrid library CCNG1
T37 chain: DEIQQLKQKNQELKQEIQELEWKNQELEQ

[38] = target: T38, 4H968-bN; experiment: two-hybrid library CCNG1
T38 chain: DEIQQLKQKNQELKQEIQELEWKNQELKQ

[39] = target: T39, O14-bA; experiment: two-hybrid library CCNG1
T39 chain: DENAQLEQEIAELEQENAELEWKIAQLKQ

[40] = target: T40, 4H883-bA; experiment: two-hybrid library CCNG1
T40 chain: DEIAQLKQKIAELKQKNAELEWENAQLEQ

[41] = target: T41, 4H908-bA; experiment: two-hybrid library CCNG1
T41 chain: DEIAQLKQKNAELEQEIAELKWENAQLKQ

[42] = target: T42, 4H918-bA; experiment: two-hybrid library CCNG1
T42 chain: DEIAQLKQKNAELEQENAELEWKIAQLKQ

[43] = target: T43, 4H953-bA; experiment: two-hybrid library CCNG1
T43 chain: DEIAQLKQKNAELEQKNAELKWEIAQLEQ

[44] = target: T44, 4H967-bA; experiment: two-hybrid library CCNG1
T44 chain: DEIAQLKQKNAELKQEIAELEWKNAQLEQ

[45] = target: T45, O5-bP; experiment: two-hybrid library CCNG1
T45 chain: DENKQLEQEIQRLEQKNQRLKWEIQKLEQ

[46] = target: T46, O13-AA; experiment: two-hybrid library CCmax
T46 chain: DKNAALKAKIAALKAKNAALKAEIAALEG

[47] = target: T47, P5A-bS; experiment: two-hybrid library CCNG1
T47 chain: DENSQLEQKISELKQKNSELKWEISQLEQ

[48] = target: T48, P6A-bS; experiment: two-hybrid library CCNG1
T48 chain: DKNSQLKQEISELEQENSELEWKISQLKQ

[49] = target: T49, P6bHq; experiment: two-hybrid library CCNG1
T49 chain: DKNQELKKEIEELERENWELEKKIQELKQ

[50] = target: T50, P7A-bS; experiment: two-hybrid library CCNG1
T50 chain: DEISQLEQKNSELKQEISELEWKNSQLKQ

[51] = target: T51, P8A-bS; experiment: two-hybrid library CCNG1
T51 chain: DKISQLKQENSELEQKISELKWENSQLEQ

[52] = target: T52, P9A-bS; experiment: two-hybrid library CCNG1
T52 chain: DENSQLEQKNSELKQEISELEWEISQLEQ

[53] = target: T53, O11-AA; experiment: two-hybrid library CCmax
T53 chain: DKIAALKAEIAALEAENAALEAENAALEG

[54] = target: T54, 4H457-bA; experiment: two-hybrid library CCNG1
T54 chain: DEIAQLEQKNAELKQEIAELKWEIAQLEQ

[55] = target: T55, 4H575-bA; experiment: two-hybrid library CCNG1
T55 chain: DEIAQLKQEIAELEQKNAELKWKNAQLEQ

[56] = target: T56, 4H683-bA; experiment: two-hybrid library CCNG1
T56 chain: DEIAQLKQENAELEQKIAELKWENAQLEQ

[57] = target: T57, 4H754-bA; experiment: two-hybrid library CCNG1
T57 chain: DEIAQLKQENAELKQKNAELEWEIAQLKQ

[58] = target: T58, 4H780-bA; experiment: two-hybrid library CCNG1
T58 chain: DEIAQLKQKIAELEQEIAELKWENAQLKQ

[59] = target: T59, 4H797-bA; experiment: two-hybrid library CCNG1
T59 chain: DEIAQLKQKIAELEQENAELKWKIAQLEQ

[60] = target: T60, 4H855-bA; experiment: two-hybrid library CCNG1
T60 chain: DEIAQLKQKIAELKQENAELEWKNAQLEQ

[61] = target: T61, 4H968-bA; experiment: two-hybrid library CCNG1
T61 chain: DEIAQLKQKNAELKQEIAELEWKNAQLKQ

B1: 4H2518-bH (peptide)
chain: DKIQELEKKNEELKRENWELEKKIQELKR
- interaction score [1]: 1
- interaction score [2]: 0.0674
- interaction score [3]: -1.77
- interaction score [4]: -0.186
- interaction score [5]: -0.0624
- interaction score [6]: -0.584
- interaction score [7]: 0.765
- interaction score [8]: 0.251
- interaction score [9]: 0.178
- interaction score [10]: 0.567
- interaction score [11]: -1.75
- interaction score [12]: 0.345
- interaction score [13]: -1.35
- interaction score [14]: 0.647
- interaction score [15]: -0.768
- interaction score [16]: 0.0916
- interaction score [17]: 0.388
- interaction score [18]: 0.604
- interaction score [19]: 0.12

B2: P5A-bP (peptide)
chain: DENKQLEQKIQRLKQKNQRLKWEIQKLEQ
- interaction score [20]: -1.57
- interaction score [21]: 1.7
- interaction score [22]: -1.06
- interaction score [23]: -0.516
- interaction score [24]: -1.44

B3: O2-AA (peptide)
chain: DENAALEAKNAALKAKIAALKAKIAALKG
- interaction score [25]: -1.61
- interaction score [26]: -1.26
- interaction score [27]: -1.55
- interaction score [28]: -1.37
- interaction score [29]: -1.77
- interaction score [30]: -1.5
- interaction score [31]: 0.633
- interaction score [32]: 1.33
- interaction score [33]: 0.934

B4: O14-AA (peptide)
chain: DENAALEAEIAALEAENAALEAKIAALKG
- interaction score [34]: -1.46
- interaction score ([25]; mean of both orientations): 0.393
- interaction score [26]: -1.47
- interaction score [27]: -0.13
- interaction score [28]: 1.3
- interaction score [29]: 1.44
- interaction score [30]: 1.84
- interaction score [31]: -0.992
- interaction score [32]: -0.458
- interaction score [33]: -1.61

B5: 4H918-bN (peptide)
chain: DEIQQLKQKNQELEQENQELEWKIQELKQ
- interaction score [35]: -0.715
- interaction score [36]: 0.301
- interaction score [37]: -0.522
- interaction score [38]: -0.218
- interaction score [39]: -0.665

B6: 4H883-bA (peptide)
chain: DEIAQLKQKIAELKQKNAELEWENAQLEQ
- interaction score [40]: -0.18
- interaction score [41]: -1.33
- interaction score [42]: -1.15
- interaction score [43]: -1.68
- interaction score [44]: -1.69
- interaction score [39]: 0.814
- interaction score [45]: -1.74

B7: O13-AA (peptide)
chain: DKNAALKAKIAALKAKNAALKAEIAALEG
- interaction score [46]: -1.69
- interaction score ([34]; mean of both orientations): 2.19
- interaction score ([25]; mean of both orientations): -1.56
- interaction score [26]: -1.86
- interaction score [27]: -1.61
- interaction score [28]: -0.257
- interaction score [29]: 1.5
- interaction score [30]: -1.54
- interaction score [31]: 1.18
- interaction score [32]: -1.54
- interaction score [33]: -1.16

B8: P5A-bS (peptide)
chain: DENSQLEQKISELKQKNSELKWEISQLEQ
- interaction score [47]: -0.799
- interaction score [48]: 0.815
- interaction score [49]: 1.33
- interaction score [50]: -1.3
- interaction score [51]: -1.1
- interaction score [52]: -0.973

B9: O11-AA (peptide)
chain: DKIAALKAEIAALEAENAALEAENAALEG
- interaction score [53]: -0.752
- interaction score ([46]; mean of both orientations): -1.08
- interaction score ([34]; mean of both orientations): -1.2
- interaction score ([25]; mean of both orientations): -0.959
- interaction score [26]: -0.899
- interaction score [27]: 1.9
- interaction score [28]: -1.47
- interaction score [29]: -0.7
- interaction score [30]: -0.673
- interaction score [31]: -1.67
- interaction score [32]: -0.539
- interaction score [33]: -1.22

B10: 4H457-bA (peptide)
chain: DEIAQLEQKNAELKQEIAELKWEIAQLEQ
- interaction score [54]: -0.968
- interaction score [55]: -1.69
- interaction score [56]: 0.308
- interaction score [57]: -1.54
- interaction score [58]: -1.18
- interaction score [59]: -1.25
- interaction score [60]: -1.04
- interaction score [42]: -0.845
- interaction score [43]: -0.948
- interaction score [61]: 0.0968
- interaction score [39]: -0.0398
